According to patent US20240336681A1 (LUDWIG MAXIMILIANS UNIVERSIT T M NCHEN, published 2024):

Tests used:
human CD47 on cells [1] = biological target: T1, human CD47 on cells (human, UniProt Q08722 19-323); test: flow cytometry on CD47-positive Expi293 cells, 50 nM antibody; MFI of the antibody over MFI of the isotype control
T1 construct: also called CD47 on Molm-13, OVCAR-3, Suit-2 MSLN, HL-60 cells, red blood cells and CD47-transfected CHO cells
Experimental: (§1) Initially, binding of anti-hCD47 IgG4, anti-hCD47 IgG1 antibodies and Fab domains were measured on CD47-expressing cells by flow cytometry. Cells were stained with 50 nM of antibody followed by staining with a secondary fluorescently labelled anti-human IgG Fc or light-chain antibody, and analyzed by flow cytometry. Binding was measured by calculating the median fluorescence intensity (MFI) ratio, by dividing MFI of the antibody by the MFI of the isotype control.

human CD47 on cells [2] = biological target: T1, human CD47 on cells; test: flow cytometry on CD47-positive Expi293 cells; MFI of the antibody over MFI of the isotype control
Experimental: as §1

[3] = biological target: recombinant C-terminally His-tagged human CD47 (extracellular domain) (human) (UniProt Q08722); test: SPR, Biacore X100; construct captured by anti-human Fc on CM5 chip, human CD47 extracellular domain as analyte, 1:1 fit
Chain of recombinant C-terminally His-tagged human CD47 (extracellular domain) (human) (Q08722 19-141): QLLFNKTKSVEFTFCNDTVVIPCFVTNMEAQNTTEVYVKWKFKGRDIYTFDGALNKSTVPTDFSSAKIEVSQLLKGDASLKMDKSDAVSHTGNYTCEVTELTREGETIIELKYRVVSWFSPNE

[4] = biological target: T2, recombinant C-terminally His-tagged human CD47 (extracellular domain) (human, UniProt Q08722 19-141); test: as above
T2 construct: also called recombinantly expressed human CD47 extracellular domain
T2 sequence (Q08722 19-141): as above
Experimental: Surface Plasmon Resonance (SPR) was used in addition to analyse binding of the different protein constructs to recombinantly expressed CD47 and to determine their affinity. Association (Kₒₙ) and dissociation (Koff) rate constants were determined by SPR using a Biacore™ X-100 (Cytiva). Using the Human antibody capture kit an anti-human Fc antibody was immobilized on a CM5 sensor chip in a covalent manner using the Amine coupling Kit according to manufacturer's instructions. Humanized anti-hCD47 IgGs were injected as ligand to reach a surface coverage of approximately 100 RU-400 RU. Recombinantly expressed human CD47 extracellular domain was used as analyte and injected in increasing concentrations (e. g. from 3.9 to 1000 nM), with standard association time of 120 s and dissociation time of 600 s. Experiments were performed in multi-cycle kinetics runs, with regeneration between sample injection with the respective regeneration buffer (3M MgCl2 for the human antibody capture kit). All reagents were diluted in HBS-EP+ buffer (Cytiva). Data are fit to a simple 1:1 interaction model using the global data analysis option available within BiaEvaluation 2.0.1 software. The dissociation constant (KD) was used as a value for the affinity and was calculated from the ratio between Koff and Kₒₙ.

T1 sequence (Q08722 19-323): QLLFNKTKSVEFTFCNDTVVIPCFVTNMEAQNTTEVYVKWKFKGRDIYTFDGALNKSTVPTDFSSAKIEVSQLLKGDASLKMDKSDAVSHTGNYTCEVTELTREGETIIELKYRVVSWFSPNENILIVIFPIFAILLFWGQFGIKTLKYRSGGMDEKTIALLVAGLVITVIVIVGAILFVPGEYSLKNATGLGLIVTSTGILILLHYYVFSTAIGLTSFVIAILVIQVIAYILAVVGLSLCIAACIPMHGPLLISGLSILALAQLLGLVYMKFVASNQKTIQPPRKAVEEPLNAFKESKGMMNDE

MFI ratio (human CD47 on cells [1])	Kd [3]	Kd [4]	Binder	binding result (human CD47 on cells [2])
1.03	–	–	2D6-014 (antibody, IgG4, V domains shown, also called VH4/VL2) VH: QVQLVESGGGLVQPGGSLRLSCAASGYTFPSYDINWVRQAPGKGLEWVGWIYPRDGSPKYNEKFKGRFTISADTSKNTAYLQMNSLRAEDTAVYYCARSVYYGTQFAYWGQGTLVTVSS VL: DIVMTQSPSSLAVSLGERVTMSCKSSQSLLNSRTRKNYLAWYQQKPGQPPKLLIYWASTRDSGVPDRFSGSGSGTDFTLTISSLQAEDVAVYYCKQSFNLVTFGGGTKLEIK	no binding (tested: 50 nM (not on the sheet))
–	176 nM	–	2D6-037 (bispecific antibody, part only; not given: linkers and anti-TAA IgG1 chains, V domains shown, not shown: another chain or arm of the molecule; large carriers; small tags and cut ends) VH: QVELVQSGPEVKKPGSSVKVSCKASGYTFPSYDINWVRQRPGQGLEWMGWIYPRFGSPKYNEKFKGRVTITADTSTSTAYMELHSLRSEDTAVYYCARSVYYGTQFAYWGQGTLVTVSA VL: DIVLTQSPSSLAVSLGERVTMSCKSSQSLLNSRTRKNYLAWYQQKPGQPPKLLIYWASTRDSGVPDRFSGSGSGTDFTLTISSLQAEDVAVYYCKQSFNLVTFGGGTKLEIK	–
–	1110 nM	–	2D6-036 (bispecific antibody, part only; not given: linkers and anti-TAA IgG1 chains, V domains shown, not shown: another chain or arm of the molecule; large carriers; small tags and cut ends) VH: QVELVQSGPEVKKPGSSVKVSCKASGYTFPSYDINWVRQRPGQGLEWMGWIIPRDGSPKYNEKFKGRVTITADTSTSTAYMELHSLRSEDTAVYYCARSVYYGTQFAYWGQGTLVTVSA VL: DIVLTQSPSSLAVSLGERVTMSCKSSQSLLNSRTRKNYLAWYQQKPGQPPKLLIYWASTRDSGVPDRFSGSGSGTDFTLTISSLQAEDVAVYYCKQSFNLVTFGGGTKLEIK	–
1.05	–	–	2D6-013 (antibody, IgG4, V domains shown, also called VH4/VL1) VH: QVQLVESGGGLVQPGGSLRLSCAASGYTFPSYDINWVRQAPGKGLEWVGWIYPRDGSPKYNEKFKGRFTISADTSKNTAYLQMNSLRAEDTAVYYCARSVYYGTQFAYWGQGTLVTVSS VL: DIVLTQSPSSLSASVGDRVTMSCKSSQSLLNSRTRKNYLAWYQQKPGKAPKLLIYWASTRDSGVPSRFSGSGSGTDFTLTISSLQPEDIATYYCKQSFNLVTFGGGTKLEIK	no binding (tested: 50 nM (not on the sheet))
4.1	–	–	2D6-012 (antibody, IgG4, V domains shown, also called VH3/VL4) VH: QVQLVESGGGLVQPGGSLRLSCAASGYTFTSYDINWVRQAPGKGLEWVGWIYPRDGSPKYNEKFKGRFTISADTSKNTAYLQMNSLRAEDTAVYYCARSVYYGTQFAYWGQGTLVTVSS VL: DIVMTQSPSSLSASVGDRVTITCKSSQSLLNSRTRKNYLAWYQQKPGKAPKLLIYWASTRDSGVPDRFSGSGSGTDFTLTISSLQPEDFATYYCKQSFNLVTFGQGTKVEIK	–
–	406 nM	–	2D6-046 (bispecific antibody, part only; not given: linkers and anti-TAA IgG1 chains, V domains shown, not shown: another chain or arm of the molecule; large carriers; small tags and cut ends) VH: QVELVQSGPEVKKPGSSVKVSCKASGYTFPSYDINWVRQRPGQGLEWMGWIYPRDGSPKYNEKFKGRVTITADTSTSTAYMELHSLRSEDTAVYYCARSVYYGTQFAYWGQGTLVTVSA VL: DIVLTQSPSSLAVSLGERVTMSCKSSQSLLNSRTRKNYLAWYQQKPGQPPKLLIYWASTRDSGVPDRFSGSGSGTDFTLTISSLQAEDVAVYYCQQSFNLVTFGGGTKLEIK	–

The next lines start with the binder.

Binder	MFI ratio (human CD47 on cells [1])	Kd [3]	Kd [4]	binding result (human CD47 on cells [2])
2D6-009 (antibody, IgG4, V domains shown) VH: QVQLVESGGGLVQPGGSLRLSCAASGYTFTSYDINWVRQAPGKGLEWVGWIYPRDGSPKYNEKFKGRFTISADTSKNTAYLQMNSLRAEDTAVYYCARSVYYGTQFAYWGQGTLVTVSS VL: DIVLTQSPSSLSASVGDRVTMSCKSSQSLLNSRTRKNYLAWYQQKPGKAPKLLIYWASTRDSGVPSRFSGSGSGTDFTLTISSLQPEDIATYYCKQSFNLVTFGGGTKLEIK	1.58	–	–	–
2D6-004 (antibody, IgG4, V domains shown, also called VH1/VL4) VH: QVELVQSGAEVKKPGSSVKVSCKASGGTFPSYDINWVRQAPGQGLEWMGWIYPRDGSPKYNEKFKGRVTITADESTSTAYMELSSLRSEDTAVYYCARSVYYGTQFAYWGQGTLVTVSS VL: DIVMTQSPSSLSASVGDRVTITCKSSQSLLNSRTRKNYLAWYQQKPGKAPKLLIYWASTRDSGVPDRFSGSGSGTDFTLTISSLQPEDFATYYCKQSFNLVTFGQGTKVEIK	1.07	–	–	no binding (tested: 50 nM (not on the sheet))
2D6-007 (antibody, IgG4, V domains shown, also called VH2/VL3) VH: QVELVQSGPEVKKPGSSVKVSCKASGYTFPSYDINWVRQRPGQGLEWMGWIYPRDGSPKYNEKFKGRVTITADTSTSTAYMELHSLRSEDTAVYYCARSVYYGTQFAYWGQGTLVTVSA VL: DIQMTQSPSSLSASVGDRVTITCKSSQSLLNSRTRKNYLAWYQQKPGKAPKLLIYWASTRDSGVPSRFSGSGSGTDFTLTISSLQPEDFATYYCKQSFNLVTFGQGTKVEIK	3.92	–	–	–
2D6-008 (antibody, IgG4, V domains shown, also called VH2/VL4) VH: QVELVQSGPEVKKPGSSVKVSCKASGYTFPSYDINWVRQRPGQGLEWMGWIYPRDGSPKYNEKFKGRVTITADTSTSTAYMELHSLRSEDTAVYYCARSVYYGTQFAYWGQGTLVTVSA VL: DIVMTQSPSSLSASVGDRVTITCKSSQSLLNSRTRKNYLAWYQQKPGKAPKLLIYWASTRDSGVPDRFSGSGSGTDFTLTISSLQPEDFATYYCKQSFNLVTFGQGTKVEIK	3.29	–	–	–
2D6-010 (antibody, IgG4, V domains shown, also called VH3/VL2) VH: QVQLVESGGGLVQPGGSLRLSCAASGYTFTSYDINWVRQAPGKGLEWVGWIYPRDGSPKYNEKFKGRFTISADTSKNTAYLQMNSLRAEDTAVYYCARSVYYGTQFAYWGQGTLVTVSS VL: DIVMTQSPSSLAVSLGERVTMSCKSSQSLLNSRTRKNYLAWYQQKPGQPPKLLIYWASTRDSGVPDRFSGSGSGTDFTLTISSLQAEDVAVYYCKQSFNLVTFGGGTKLEIK	1.08	–	–	no binding (tested: 50 nM (not on the sheet))
2D6-003 (antibody, IgG4, V domains shown, also called VH1/VL3) VH: QVELVQSGAEVKKPGSSVKVSCKASGGTFPSYDINWVRQAPGQGLEWMGWIYPRDGSPKYNEKFKGRVTITADESTSTAYMELSSLRSEDTAVYYCARSVYYGTQFAYWGQGTLVTVSS VL: DIQMTQSPSSLSASVGDRVTITCKSSQSLLNSRTRKNYLAWYQQKPGKAPKLLIYWASTRDSGVPSRFSGSGSGTDFTLTISSLQPEDFATYYCKQSFNLVTFGQGTKVEIK	1.06	–	–	no binding (tested: 50 nM (not on the sheet))
2D6-001 (antibody, IgG4, V domains shown, also called VH1/VL1) VH: QVELVQSGAEVKKPGSSVKVSCKASGGTFPSYDINWVRQAPGQGLEWMGWIYPRDGSPKYNEKFKGRVTITADESTSTAYMELSSLRSEDTAVYYCARSVYYGTQFAYWGQGTLVTVSS VL: DIVLTQSPSSLSASVGDRVTMSCKSSQSLLNSRTRKNYLAWYQQKPGKAPKLLIYWASTRDSGVPSRFSGSGSGTDFTLTISSLQPEDIATYYCKQSFNLVTFGGGTKLEIK	1.15	–	–	no binding (tested: 50 nM (not on the sheet))
2D6-011 (antibody, IgG4, V domains shown, also called VH3/VL3) VH: QVQLVESGGGLVQPGGSLRLSCAASGYTFTSYDINWVRQAPGKGLEWVGWIYPRDGSPKYNEKFKGRFTISADTSKNTAYLQMNSLRAEDTAVYYCARSVYYGTQFAYWGQGTLVTVSS VL: DIQMTQSPSSLSASVGDRVTITCKSSQSLLNSRTRKNYLAWYQQKPGKAPKLLIYWASTRDSGVPSRFSGSGSGTDFTLTISSLQPEDFATYYCKQSFNLVTFGQGTKVEIK	4.51	–	–	–
2D6-002 (antibody, IgG4, V domains shown, also called VH1/VL2) VH: QVELVQSGAEVKKPGSSVKVSCKASGGTFPSYDINWVRQAPGQGLEWMGWIYPRDGSPKYNEKFKGRVTITADESTSTAYMELSSLRSEDTAVYYCARSVYYGTQFAYWGQGTLVTVSS VL: DIVMTQSPSSLAVSLGERVTMSCKSSQSLLNSRTRKNYLAWYQQKPGQPPKLLIYWASTRDSGVPDRFSGSGSGTDFTLTISSLQAEDVAVYYCKQSFNLVTFGGGTKLEIK	1.06	–	–	no binding (tested: 50 nM (not on the sheet))
2D6-006 (antibody, IgG4, V domains shown, also called VH2/VL2) VH: QVELVQSGPEVKKPGSSVKVSCKASGYTFPSYDINWVRQRPGQGLEWMGWIYPRDGSPKYNEKFKGRVTITADTSTSTAYMELHSLRSEDTAVYYCARSVYYGTQFAYWGQGTLVTVSA VL: DIVMTQSPSSLAVSLGERVTMSCKSSQSLLNSRTRKNYLAWYQQKPGQPPKLLIYWASTRDSGVPDRFSGSGSGTDFTLTISSLQAEDVAVYYCKQSFNLVTFGGGTKLEIK	3.12	–	–	–
2D6-000 (antibody, V domains shown, Constant regions come from the vectors pFUSE-CHIg-hG4 and pFUSE2-CLIg-hk; also called anti-CD47 IgG4 (2D6-000)) VH: QVQLQQSGPELVKPGTSVTLSCKASGYTFPSYDINWMKQRPGQGLEWIGWIYPRDGSPKYNEKFKGKATLTVDTSSSTAYMELHSLTSEDSAVYFCARSVYYGTQFAYWGQGTLVTVSA VL: DIVMSQSPSSLAVSAGEKVTMSCKSSQSLLNSRTRKNYLAWYQQKPGQSPKLLIYWASTRDSGVPDRFTGSGSGTDFTLTISSVQAEDLAVYYCKQSFNLVTFGAGTKLELK	–	–	56.1 nM	–
